The values below come from article PMC6155775, “Role of Quinone Reductase 2 in the Antimalarial Properties of Indolone-Type Derivatives” (Molecules : A Journal of Synthetic Chemistry and Natural …, 2017).

Substrate in the series: CC1=CC(=O)c2ccccc2C1=O
Nature of the series: enzyme kinetics (KM) by BNAH fluorescence decrease; reference substrate. The series is classed as biochemical, Homo sapiens. The conditions noted are these: FAD; pH 8.5; 37.0 °C.

B1: human quinone reductase 2 (hQR2) (Homo sapiens) (protein)
chain: MAGKKVLIVYAHQEPKSFNGSLKNVAVDELSRQGCTVTVSDLYAMNLEPRATDKDITGTLSNPEVFNYGVETHEAYKQRSLASDITDEQKKVREADLVIFQFPLYWFSVPAILKGWMDRVLCQGFAFDIPGFYDSGLLQGKLALLSVTTGGTAEMYTKTGVNGDSRYFLWPLQHGTLHFCGFKVLAPQISFAPEIASEEERKGMVAAWSQRLQTIWKEEPIPCTAHWHFGQ
notes: 6his-hQR2
Turning to B1, the Michaelis constant (Km) was found to be 10 ± 1 µM.
